Data on two substances can be found in paper doi:10.1101/2024.02.24.581832.

Broadly, the ΔTm is the change in melting temperature against a reference sample.

The test has as its target N-terminal domain of MtbClpC1 (residues 1-145) (Mycobacterium tuberculosis) (UniProt P9WPC9). Briefly: differential scanning fluorimetry. In general terms: In DSF a fluorescence change marks the thermal transition of the protein.
UniProt P9WPC9, sequence (P9WPC9 1-145): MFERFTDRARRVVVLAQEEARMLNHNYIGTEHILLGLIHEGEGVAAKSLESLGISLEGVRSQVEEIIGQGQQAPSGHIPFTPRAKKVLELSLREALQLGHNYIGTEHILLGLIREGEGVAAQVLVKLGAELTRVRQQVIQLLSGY

Consider ilamycin E (peptide), for which the ΔTm was determined as 3 °C.
In the case of ilamycin F (peptide) it was 1 °C.
